Reference: patent US20230357367A1 (GENERATE BIOMEDICINES, published 2023)
Read-outs that look alike come from different tables or passages of the source.

Experiments:
[1] = biological target: SARS-CoV-1 spike trimer (recombinant) (SARS-CoV-1, UniProt P59594 14-1195)
[2] = biological target: T1, SARS-CoV-1 Spike on pseudovirus (SARS-CoV-1, UniProt P59594 14-1255); assay: cell-based or functional assay
[3] = biological target: T2, WIV1 Spike on pseudovirus (WIV1 (bat SARS-like coronavirus)); assay: cell-based or functional assay
[4] = biological target: T1, SARS-CoV-1 Spike on pseudovirus; assay: cell-based or functional assay; remark: listed apart in the source
[5] = biological target: T2, WIV1 Spike on pseudovirus; assay: cell-based or functional assay; remark: listed apart in the source
[6] = biological target: T1, SARS-CoV-1 Spike on pseudovirus; assay: cell-based or functional assay; remark: listed apart in the source
[7] = biological target: T2, WIV1 Spike on pseudovirus; assay: cell-based or functional assay; remark: listed apart in the source

B1: AB-1 (antibody, V domains shown)
VH: EVQLVESGAEVKKPGESLKISCKGSGYTFTRYWIGWVRQMPGKGLEWMGIIYPGDSDVRYSPSFQGHVTISADKSISTAYLQWNSLKASDTAMYYCARLPQYCSKGVCYRWFDPWGQGTLVTVSS
VL: EIVLTQSPSSVSASVGDRVTITCRASQGISSWLAWYQQKPGKAPKLLIYAASSLQSGVPSRFSGSGSGTDFTLTISSLQPEDFATYYCQQGHSFPYTFGQGTNLEIK
EC50 [1]: 0.065 µg/mL
IC50, pseudovirus neutralization [2]: 0.04 µg/mL
IC50, pseudovirus neutralization [3]: 0.069 µg/mL
IC50, pseudovirus neutralization [4]: 0.009 µg/mL
IC50, pseudovirus neutralization [5]: 0.0139 µg/mL
% neutralization at 4.5 µg/ml, pseudovirus [6]: 99%
% neutralization at 4.5 µg/ml, pseudovirus [7]: 101%
